Data: US10704030B2, “P450-BM3 variants with improved activity” (Codexis, Inc., priority 2015, dated 2020)
Changes are numbered by the printed parent chain. Names and notes keep the numbering of the source.

B1: Variant 18: P450-BM3 variant of SEQ ID NO:16: K32R; C48S; Y52F; I95P; I176V; L216Y; D232H; E349K; M491A; N574T; E619D; D722S; A767T (protein)
chain: MTIKEMPQPKTFGELKNLPLLNTDKPVQALMRIADELGEIFKFEAPGSVTRFLSSQRLIKEACDESRFDKNLSQALKFARDFLGDGLVTSWTHEPNWKKAHNILLPSFSQQAMKGYHAMMVDIAVQLVQKWERLNADEHIEVSEDMTRLTLDTIGLCGFNYRFNSFYRDQPHPFIVSMVRALDEVMNKLQRANPDDPAYDENKRQCQEDIKVMNDYVDKIIADRKARGEQSHDLLTQMLNGKDPETGEPLDDGNISYQIITFLIAGHETTSGLLSFALYFLVKNPHVLQKVAEEAARVLVDPVPSYKQVKQLKYVGMVLNEALRLWPTAPAFSLYAKEDTVLGGEYPLKKGDEVMVLIPQLHRDKTIWGDDVEEFRPERFENPSAIPQHAFKPFGNGQRACIGQQFALHEATLVLGMMLKHFDFEDHTNYELDIKETLTLKPEGFVVKAKSKKIPLGGIPSPSTEQSAKKVRKKAENAHNTPLLVLYGSNAGTAEGTARDLADIAMSKGFAPQVATLDSHAGNLPREGAVLIVTASYNGHPPDNAKQFVDWLDQASADEVKGVRYSVFGCGDKTWATTYQKVPAFIDETLAAKGAENIADRGEADASDDFEGTYEEWRDHMWSDVAAYFNLDIENSEDNKSTLSLQFVDSAADMPLAKMHGAFSTNVVASKELQQPGSARSTRHLEIELPKEASYQEGDHLGVIPRNYEGIVNRVTARFGLSASQQIRLEAEEEKLAHLPLAKTVSVEELLQYVELQDPVTRTQLRTMAAKTVCPPHKVELEALLEKQAYKEQVLAKRLTMLELLEKYPACEMKFSEFIALLPSIRPRYYSISSSPRVDEKQASITVSVVSGEAWSGYGEYKGIASNYLAELQEGDTITCFISTPQSEFTLPKDPETPLIMVGPGTGVAPFRGFVQARKQLKEQGQSLGEAHLYFGCRSPHEDYLYQEELENAQSEGIITLHTAFSRMPNQPKTYVQHVMEQDGKKLIELLDQGAHFYICGDGSQMAPAVEATLMKSYADVHQVSEADARLWLQQLEEKGRYAKDVWAG
modifications: P450_BM3
notes: C48S; Y52F; I95P; I176V; L216Y; D232H; E349K; M491A; N574T; E619D; D722S; A767T
B2: Variant 19: P450-BM3 variant of SEQ ID NO:16: C48S; Y52F; I95P; Q111R; I176V; L216Y; D232H; P347T; M491A; N574T; D722S (protein)
chain: B1 chain with R32K, Q111R, P347T, K349E, D619E, T767A
modifications: P450_BM3
notes: Y52F; I95P; Q111R; I176V; L216Y; D232H; P347T; M491A; N574T; D722S
B3: SEQ ID NO: 6: P450-BM3 parental backbone from the commercially available MCYP panel (MCYP-0343; Codexis) (protein)
chain: MTIKEMPQPKTFGELKNLPLLNTDKPVQALMKIADELGEIFKFEAPGCVTRYLSSQRLIKEACDESRFDKNLSQALKFARDFLGDGLFTSWTHEINWKKAHNILLPSFSQQAMKGYHAMMVDIAVQLVQKWERLNADEHIEVSEDMTRLTLDTIGLCGFNYRFNSFYRDQPHPFIISMVRALDEVMNKLQRANPDDPAYDENKRQCQEDIKVMNDLVDKIIADRKARGEQSDDLLTQMLNGKDPETGEPLDDGNISYQIITFLIAGHETTSGLLSFALYFLVKNPHVLQKVAEEAARVLVDPVPSYKQVKQLKYVGMVLNEALRLWPTAPAFSLYAKEDTVLGGEYPLEKGDEVMVLIPQLHRDKTIWGDDVEEFRPERFENPSAIPQHAFKPFGNGQRACIGQQFALHEATLVLGMMLKHFDFEDHTNYELDIKETLTLKPEGFVVKAKSKKIPLGGIPSPSTEQSAKKVRKKAENAHNTPLLVLYGSNMGTAEGTARDLADIAMSKGFAPQVATLDSHAGNLPREGAVLIVTASYNGHPPDNAKQFVDWLDQASADEVKGVRYSVFGCGDKNWATTYQKVPAFIDETLAAKGAENIADRGEADASDDFEGTYEEWREHMWSDVAAYFNLDIENSEDNKSTLSLQFVDSAADMPLAKMHGAFSTNVVASKELQQPGSARSTRHLEIELPKEASYQEGDHLGVIPRNYEGIVNRVTARFGLDASQQIRLEAEEEKLAHLPLAKTVSVEELLQYVELQDPVTRTQLRAMAAKTVCPPHKVELEALLEKQAYKEQVLAKRLTMLELLEKYPACEMKFSEFIALLPSIRPRYYSISSSPRVDEKQASITVSVVSGEAWSGYGEYKGIASNYLAELQEGDTITCFISTPQSEFTLPKDPETPLIMVGPGTGVAPFRGFVQARKQLKEQGQSLGEAHLYFGCRSPHEDYLYQEELENAQSEGIITLHTAFSRMPNQPKTYVQHVMEQDGKKLIELLDQGAHFYICGDGSQMAPAVEATLMKSYADVHQVSEADARLWLQQLEEKGRYAKDVWAG
modifications: P450_BM3

Experiments:
Format in all cases: biochemical
[1] = Validation of generalist properties: oxidation of diclofenac by lyophilized P450-BM3 variant, UPLC-MS; details: [Diclofenac] = 1 mM; for TON: TON = [substrate]*% conversion/[P450]; for FIOPC (F12): fold improvement over parent MCYP-1.2-F12
Method in brief: (§1)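 Lyophilized lysate of E. coli-expressed P450-BM3 variant (stock standardized to 12 μM heme) was incubated 24 h at 30 °C with 1 or 2 mM substrate, 1.0 mM NADP+, 25 mM glucose, 0.5 mg/mL glucose dehydrogenase and 5% DMSO in 100 mM potassium phosphate. Acetonitrile-quenched samples were analyzed by UPLC-MS (positive ESI).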

[2] = Validation of generalist properties: oxidation of loratadine by lyophilized P450-BM3 variant, UPLC-MS; details: [Loratadine] = 1 mM; for TON: TON = [substrate]*% conversion/[P450]
Method in brief: as §1

[3] = Validation of generalist properties: oxidation of imatinib by lyophilized P450-BM3 variant, UPLC-MS; details: [Imatinib] = 1 mM; for TON: TON = [substrate]*% conversion/[P450]; for FIOPC (F12): fold improvement over parent MCYP-1.2-F12
Method in brief: as §1

[4] = Validation of generalist properties: oxidation of gefitinib by lyophilized P450-BM3 variant, UPLC-MS; details: [Gefitinib] = 1 mM; for TON: TON = [substrate]*% conversion/[P450]; for FIOPC (F12): fold improvement over parent MCYP-1.2-F12
Method in brief: as §1

[5] = Validation of generalist properties over the four substrates screened
Experimental: For the production of lyophilized protein powders, LB agar plates supplemented with chloramphenicol (30 μg/mL) were streaked with E. coli containing a desired B. megaterium P450-BM3 variant in an IPTG-inducible vector. The plates were grown at 37° C. for 16 hrs before single clones were selected to inoculate a 15 mL Falcon™ tube (Fisher) containing TB media (3 mL) supplemented with chloramphenicol (30 μg/mL). The tube was shaken at 200 rpm, 30° C., and 85% humidity for 20-24 h to grow the cultures to saturation. Then, 2.5 mL of the overnight culture was used to inoculate sterile 1 L flasks containing TB medium (250 mL) supplemented with chloramphenicol (30 μg/mL), trace element solution (as described above), and 0.05 g/L ammonium iron (III) citrate. After being shaken at 250 rpm, 30° C., and 85% humidity to an OD600 of 0.8-1.2, P450 expression was induced by addition of IPTG (500 uM) and the heme precursor 5-aminolevulinic acid (5-ALA) to a final concentration of 500 uM. The cultures were grown for additional 20-24 hours and centrifuged in pre-weighed 250 mL centrifuge bottles for 20 minutes at 4000 rpm, 4° C. The supernatants were discarded, and the centrifuge bottles containing cell pellets were weighed. The pellets were resuspended in 50 mM potassium phosphate buffer with 2 mM DTT, pH 8.0 (5 mL of buffer per gram of cell pellet). The cells were lysed using a microfluidizer homogenizer, and the suspensions of cells and lysate were collected in sterile 50 mL centrifuge tubes. The samples were centrifuged for 30 minutes at 10,000 rpm, 4° C. The clarified lysate was collected into a plastic petri plate and frozen at −80° C. prior to lyophilization. The enzyme-containing lysates were lyophilized using standard methods known in the art.
Enzyme stocks (˜12 μM) were prepared by dissolving ˜20 mg of each enzyme in 100 mM potassium phosphate buffer, pH 8.0 (1 mL). The concentration of each enzyme stock solution was determined by the UV-visible absorption spectroscopy (after centrifugation to remove particulates) and diluted to standardize at 12 μM heme protein. Substrate solutions were prepared by dissolving each substrate in DMSO to reach a final concentration of 20 mM or 40 mM. Reaction mix (235 μL) followed by enzyme solution (50 μL) was added to the plates. The substrate stock solution was added to the enzyme solutions (15 μL at the two different concentrations). Each reaction contained 100 mM potassium phosphate, 1.0 mM NADP+, 25 mM glucose, 0.5 mg/mL glucose dehydrogenase, 5% DMSO and substrate at 1 or 2 mM. Loratadine, imatinib, and gefitinib (See, FIG. 1) were selected as substrates in addition to diclofenac to validate improved BM3 variants. The reactions were shaken at 450 rpm at 30° C. over 24 hours. All reactions were diluted with acetonitrile to a final concentration of 0.5 mM substrate. The plates were then centrifuged at 3,000 g for 1 hour at 20° C. The supernatant was diluted 1:1 with acetonitrile, filtered using a 0.4 micron filter, and analyzed by UPLC-MS.
For UPLC-MS analysis, the quenched and filtered reactions were transferred to 96-well HTP plates for analysis by UPLC on a Waters Acquity H-class system equipped with an autosampler. 1 uL of quenched sample was injected onto an Acquity UPLC HSS T3 column, 100 Å, (1.8 um; 2.1×100 mm). […] Column eluent was monitored by PDA (200-600 nm) prior to MS analysis in positive ESI mode (desolvation temperature 350° C., 3.25 kV spray voltage, cone voltage 25V). […]

Molecule	% Conv. [1]	TON [1]	FIOPC (F12) [1]	% Conv. [2]	TON [2]	FIOPC (F12) ([2]; fold improvement over parent MCYP-1.2-F12)	% Conv. [3]	TON [3]	FIOPC (F12) [3]	% Conv. [4]	TON [4]	FIOPC (F12) [4]	FIOPC (F02) ([2]; fold improvement over parent MCYP-P1.2-F02)	performance (% conversion at 1 mM substrate loading) over the substrates screened, in words [5]
B1	++++ (15.01-20.00)	‡‡‡‡ (10000-50000)	* (0.0-3.0)	++ (5.01-10.00)	‡‡‡ (5001-10000)	* (0.0-3.0)	+++ (10.01-15.00)	‡‡‡ (5001-10000)	** (3.01-5.0)	++++ (15.01-20.00)	‡‡‡‡ (10000-50000)	**** (10.01-15.00)	–	–
B2	++++ (15.01-20.00)	‡‡‡‡ (10000-50000)	* (0.0-3.0)	+++ (10.01-15.00)	‡‡‡ (5001-10000)	–	+++ (10.01-15.00)	‡‡‡ (5001-10000)	** (3.01-5.0)	++++ (15.01-20.00)	‡‡‡‡ (10000-50000)	**** (10.01-15.00)	* (0.0-3.0)	–
B3	++ (5.01-10.00)	‡‡ (1001-5000)	–	+ (0-5.00)	‡ (0-1000)	–	+ (0-5.00)	‡‡ (1001-5000)	–	++ (5.01-10.00)	‡‡ (1001-5000)	–	–	low activity for each substrate screened
